Assay results from patent US8247531B2, “Mutant epidermal growth factor polypeptides, nucleic acids, and uses therefor” (priority 2006, dated 2012).

Experiments:
EGFR = EGFR (Homo sapiens, UniProt P00533); settings: Mullenbach et al., Protein Eng 11:473-480, 1998; cited from earlier work
[1] = molecular target: T1, EGFR on NR6 fibroblast cells (Homo sapiens, UniProt P00533); test: Competition binding of soluble EGF to EGFR on NR6 fibroblast cells (flow cytometry, Alexa-488 labeled wt EGF); settings: competition with Alexa-488 labeled wt EGF, 6 hr at 4° C., read-out: Equilibrium dissociation constants
T1 construct: expressed in transfected cells; host or cells: NR6 fibroblast cells
Method: (§1) Fluorescence intensity of cell surface labeling was measured by flow cytometry.
as §1
This mutant was tested using one of the binding assays described herein in which binding to EGFR expressed on cells is measured. […] Fluorescence intensity of cell surface labeling was measured by flow cytometry.

Substance | increase in affinity for EGFR over wt EGF (previous data) (EGFR) | Kd [1]
G12Q: previously described EGF containing a G12Q mutation (Mullenbach et al.) (NSDSECPLSHDQYCLHDGVCMYIEALDKYACNCVVGYIGERCQYRDLKWWELR) | 5 fold | 
NSYSECPLSYDGYCLNDGVCRYIEALDRYACNCVVGYIGERCQYRDLKWWWLR (Mutant of human epidermal growth factor) [clone 107, second generation EGF mutant from the SOSM library] |  | 0.13 ± 0.01 nM
